Measured values: CN105061596A (JIANGSU NOVOMAB BIOPHARMACEUTICAL INC, dated 2015)

What was measured:
Blys-His融合蛋白(含6×His标签) = biological target: T1, Blys-His融合蛋白(含6×His标签) (human, UniProt Q9Y275 134-285); assay: ELISA, Blys-His coated, 1:4 serial dilutions of antibody, mouse anti-human IgG-HRP
T1 construct: Expressed in CHO-K1 cells and purified on a Ni column; The background says that Blys acts as a homotrimer and that residues 133-285 are the main functional region; also called 重组人BLYS; not shown: 6×His tag

Blys [1] = biological target: T2, Blys (human, UniProt Q9Y275 134-285, limits assumed); assay: cell-based or functional assay
Blys [2] = biological target: T2, Blys; assay: SPR, Biacore T200, antibody captured by goat anti-human IgG on a CM5 chip, 300 nM BLYS as analyte

Binder	EC50 (Blys-His融合蛋白(含6×His标签)) [nM]	抑制Blys刺激的鼠脾细胞增殖 IC50 (Blys [1]) [ng/mL]	Kd (Blys [2]) [nM]
NMB01 (antibody, V domains shown) VH: EVQLVESGGGLVQPGGSLRLSCAASGFTFSTFGMNWVRQAPGKGLEWVSYISSGSSTIYYADTVKGRFTISRDNAKNSLYLQMNSLRAEDTAVYYCARLGDPLLRPKGNAMDYWGQGTLVTVSS VL: DIQMTQSPSSLSASVGDRVTITCLASQTIGTWLAWYQQKPGKAPKLLIYAATRKADGVPSRFSGSGSGTDFTLTISSLQPEDFATYYCQQLYSSPWTFGGGTKVEIK	0.0292	–	–
Belimumab (antibody, V domains shown) VH: QVQLQQSGAEVKKPGSSVRVSCKASGGTFNNNAINWVRQAPGQGLEWMGGIIPMFGTAKYSQNFQGRVAITADESTGTASMELSSLRSEDTAVYYCARSRDLLLFPHHALSPWGRGTMVTVSS VL: SSELTQDPAVSVALGQTVRVTCQGDSLRSYYASWYQQKPGQAPVLVIYGKNNRPSGIPDRFSGSSSGNTASLTITGAQAEDEADYYCSSRDSSGNHWVFGGGTELTVLG	–	8.25	1.37
